According to article PMC6938348:
pKd: −log10 of the molar value. Read-outs that look alike come from different tables or passages of the source.

Key:
[1] = biological target: Her2 on cells (SKOV3, JIMT-1, MCF7) (human (endogenous in SKOV3, JIMT-1, MCF7)) (UniProt P04626); assay: flow cytometry on cells; saturation binding of full-size antibodies on live high-Her2 SKOV3 cells, 4°C 2 h, 0 to 200 nM or 1 μM, washed, anti-human Fc AlexaFluor488-(Fab')2 detection; apparent KD
[2] = biological target: Her2 on cells (SKOV3, JIMT-1, MCF7) (human (endogenous in SKOV3, JIMT-1, MCF7)) (UniProt P04626); assay: flow cytometry on cells; saturation binding of full-size antibodies on live low-Her2 MCF7 cells, 4°C 2 h, 0 to 200 nM or 1 μM, washed, anti-human Fc AlexaFluor488-(Fab')2 detection; apparent KD
[3] = biological target: soluble Her2 ectodomain (Homo sapiens (assumed; species and source not stated)) (UniProt P04626); assay: SPR; antibody captured on an anti-hFc CM-5 surface, soluble Her2 ectodomain flowed (monovalent binding); single cycle kinetics in duplicate, 25°C, PBS with […] EDTA and 0.05% Tween 20; 1:1 binding model; Biacore T200
[4] = biological target: Her2 on cells (SKOV3, JIMT-1, MCF7) (human (endogenous in SKOV3, JIMT-1, MCF7)) (UniProt P04626)
[5] = biological target: Her2 on cells (SKOV3, JIMT-1, MCF7) (human (endogenous in SKOV3, JIMT-1, MCF7)) (UniProt P04626); remark: listed apart in the source
[6] = biological target: Her2 (human (endogenous in SKOV3 and JIMT-1)) (UniProt P04626)
[7] = biological target: Her2 (human (endogenous in SKOV3 and JIMT-1)) (UniProt P04626); remark: listed apart in the source
[8] = biological target: Her2 (human (endogenous in SKOV3 and JIMT-1)) (UniProt P04626); remark: listed apart in the source
[9] = biological target: Her2 (human (endogenous in SKOV3 and JIMT-1)) (UniProt P04626); remark: listed apart in the source
[10] = biological target: Her2 (human (endogenous in SKOV3 and JIMT-1)) (UniProt P04626); remark: listed apart in the source
[11] = biological target: Her2 (human (endogenous in SKOV3 and JIMT-1)) (UniProt P04626); remark: listed apart in the source
[12] = biological target: Herceptin full-size antibody variant 7–6 (H-Y57A, L-N30D); assay: SPR; antibody captured on an anti-hFc CM-5 surface, soluble Her2 ectodomain flowed (monovalent binding); single cycle kinetics in duplicate, 25°C, PBS with […] EDTA and 0.05% Tween 20; 1:1 binding model; Biacore T200
[13] = biological target: bH1 full-size antibody variant 16–13 (H-G99R); assay: as above
[14] = biological target: bH1 full-size antibody variant 15–13 (H-G99D); assay: as above
[15] = biological target: bH1 full-size antibody variant 14–13 (H-D98W, H-G99D); assay: as above
[16] = biological target: Herceptin full-size antibody variant 7–5 (H-Y57A, L-F53N, L-Y92A); assay: as above

Herceptin full-size antibody variant 2–3 (L-F53N)
pKd [1]: 8.71 | pKd [2]: 9.52 | pKd [3]: 8.68

Herceptin full-size antibody variant 2–4 (L-Y92A)
pKd [1]: 8.70 | pKd [2]: 9.41 | pKd [3]: 8.63

Herceptin full-size antibody variant 2–5 (L-F53N, L-Y92A)
pKd [1]: 8.70 | IC50 of cytotoxicity, antibody directly conjugated to DM1, SKOV3 cells [4]: 0.161 nM | IC50 of cytotoxicity, antibody directly conjugated to PNU, MCF7 cells [4]: 4.72 nM | IC50 of cytotoxicity, antibody directly conjugated to PNU, SKOV3 cells [4]: 0.138 nM | IC50 of cytotoxicity, indirect ADC screen (DM1-conjugated secondary antibody), JIMT1 cells [5]: 8.7 nM | IC50 of cytotoxicity, indirect ADC screen (DM1-conjugated secondary antibody), MCF7 cells [5]: 8.1 nM | IC50 of cytotoxicity, indirect ADC screen (MMAE-conjugated secondary antibody), JIMT1 cells [5]: 24.4 nM | IC50 of cytotoxicity, indirect ADC screen (MMAE-conjugated secondary antibody), MCF7 cells [5]: 20.6 nM | pKd [3]: 7.65

Herceptin full-size antibody variant 2–6 (L-N30D)
pKd [1]: 8.59 | pKd [2]: 9.29 | pKd [3]: 8.16

Herceptin full-size antibody variant 7-5 (H-Y57A, L-F53N, L-Y92A)
EC50 of internalization, direct (pHAb-conjugated antibody variant), SKOV3 cells, 37°C, 18 h, high content imaging [6]: 19.2 nM | EC50 of internalization, indirect (antibody variant + pHAb-secondary antibody), SKOV3 cells, 37°C, 18 h, high content imaging [6]: 1.99 nM

Herceptin full-size antibody variant 7–1 (H-Y57A)
pKd [1]: 8.64 | pKd [2]: 9.28 | pKd [3]: 8.80

Herceptin full-size antibody variant 7–3 (H-Y57A, L-F53N)
pKd [1]: 8.63 | pKd [2]: 9.17 | pKd [3]: 7.79

Herceptin full-size antibody variant 7–4 (H-Y57A, L-Y92A)
pKd [1]: 8.62 | pKd [2]: 9.33 | pKd [3]: 7.75

Herceptin full-size antibody variant 7–5 (H-Y57A, L-F53N, L-Y92A)
pKd [1]: 8.46 | IC50 of cytotoxicity, antibody directly conjugated to DM1, SKOV3 cells [4]: 2.01 nM | IC50 of cytotoxicity, antibody directly conjugated to PNU, SKOV3 cells [4]: 2.08 nM | IC50 of cytotoxicity, indirect ADC screen (DM1-conjugated secondary antibody), JIMT1 cells [5]: 15.7 nM | IC50 of cytotoxicity, indirect ADC screen (MMAE-conjugated secondary antibody), JIMT1 cells [5]: 11000 nM | IC50 of cytotoxicity, indirect ADC screen (MMAE-conjugated secondary antibody), MCF7 cells [5]: 32.4 nM | IC50 of cytotoxicity, indirect ADC screen (MMAE-conjugated secondary antibody), SKOV3 cells [5]: 0.204 nM | pKd [2]: 6.23

Herceptin full-size antibody variant 7–6 (H-Y57A, L-N30D)
pKd [1]: 8.50 | pKd [2]: 9.02

Herceptin full-size antibody variant 11-9 (H-D98F, H-D31M, L-D28K)
EC50 of internalization, direct (pHAb-conjugated antibody variant), JIMT-1 cells, 37°C, 18 h, high content imaging [7]: 70 pM | EC50 of internalization, direct (pHAb-conjugated antibody variant), SKOV3 cells, 37°C, 18 h, high content imaging [7]: 0.32 nM | EC50 of internalization, indirect (antibody variant + pHAb-secondary antibody), SKOV3 cells, 37°C, 18 h, high content imaging [7]: 0.44 nM

Herceptin full-size antibody variant 12-9 (H-D98F, H-D31K, L-D28K)
EC50 of internalization, direct (pHAb-conjugated antibody variant), JIMT-1 cells, 37°C, 18 h, high content imaging [8]: 70 pM | EC50 of internalization, direct (pHAb-conjugated antibody variant), SKOV3 cells, 37°C, 18 h, high content imaging [8]: 0.41 nM | EC50 of internalization, indirect (antibody variant + pHAb-secondary antibody), SKOV3 cells, 37°C, 18 h, high content imaging [8]: 0.41 nM

WT Herceptin full-size antibody (variant 2-1, Parent 1)
EC50 of internalization, direct (pHAb-conjugated antibody variant), JIMT-1 cells, 37°C, 18 h, high content imaging [9]: 0.21 nM | EC50 of internalization, direct (pHAb-conjugated antibody variant), SKOV3 cells, 37°C, 18 h, high content imaging [9]: 0.32 nM | EC50 of internalization, indirect (antibody variant + pHAb-secondary antibody), SKOV3 cells, 37°C, 18 h, high content imaging [9]: 0.55 nM

bH1 full-size antibody variant 14-13 (H-D98W, H-G99D)
EC50 of internalization, direct (pHAb-conjugated antibody variant), SKOV3 cells, 37°C, 18 h, high content imaging [10]: 59 nM | EC50 of internalization, indirect (antibody variant + pHAb-secondary antibody), SKOV3 cells, 37°C, 18 h, high content imaging [10]: 3.75 nM

bH1 full-size antibody variant 16-13 (H-G99R)
EC50 of internalization, direct (pHAb-conjugated antibody variant), SKOV3 cells, 37°C, 18 h, high content imaging [11]: 74.9 nM

soluble Her2 ectodomain (from UniProt P04626 23-652) (domain or fragment)
pKd [12]: 7.36 | pKd [13]: 6.38 | kon [13]: 120000 M⁻¹ s⁻¹ | pKd [14]: 6.53 | pKd [15]: 6.60 | kon [15]: 78000 M⁻¹ s⁻¹ | pKd [16]: 7.17
